Assay results taken from US20110190218A1 (KARLSRUHE INSTITUTE OF TECHNOLOGY, published 2011).

Target: GST-Bag-1L-(202-345) (human, UniProt P08515 1-218 = GST; Q99933 202-345)
Assay: GST pull-down from lysates of Bag-1L-transfected cells, immunoblot with Bag-1L specific antibody

B1: Bag-1L (in lysates from Bag-1L-transfected cells) (other)
chain: MAQRGGARRPRGDRERLGSRLRALRPGREPRQSEPPAQRGPPPSGRPPARSTASGHDRPTRGAAAGARRPRMKKKTRRRSTRSEELTRSEELTLSEEATWSEEATQSEEATQGEEMNRSQEVTRDEESTRSEEVTREEMAAAGLTVTVTHSNEKHDLHVTSQQGSSEPVVQDLAQVVEEVIGVPQSFQKLIFKGKSLKEMETPLSALGIQDGCRVMLIGKKNSPQEEVELKKLKHLEKSVEKIADQLEELNKELTGIQQGFLPKDLQAEALCKLDRRVKATIEQFMKILEEIDTLILPENFKDSRLKRKGLVKKVQAFLAECDTVEQNICQETERLQSTNFALAE
notes: Untagged Bag-1L as the soluble partner in the test for dimerization; also called human Bag-1L; p50
- binding result: no binding
